Laboratory results published in US20050085420A1, “Method of modulating apoptosis and compositions thereof” (priority 2003, published 2005).

Target: T1, N-terminal HA-tagged VDAC2 (murine, UniProt Q60930 1-295)
T1 construct: also called HA-VDAC2; hemagglutinin (HA)-tagged version of VDAC2; not shown: N-terminal HA tag
T1 sequence (looked up): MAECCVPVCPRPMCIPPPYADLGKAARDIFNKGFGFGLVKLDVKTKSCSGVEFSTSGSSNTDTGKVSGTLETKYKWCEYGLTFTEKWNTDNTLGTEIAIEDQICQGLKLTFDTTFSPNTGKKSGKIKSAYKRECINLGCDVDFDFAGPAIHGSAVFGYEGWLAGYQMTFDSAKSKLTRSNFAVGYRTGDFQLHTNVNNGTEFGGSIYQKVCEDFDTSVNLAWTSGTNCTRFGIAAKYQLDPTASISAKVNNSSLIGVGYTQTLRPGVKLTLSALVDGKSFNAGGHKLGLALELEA
Test: anti-HA immunoprecipitation in 1% CHAPS, anti-BID immunoblot
Description: The activated form of BID, p15 tBID, was first examined in cells expressing only VDAC2 and not the other isoforms, VDAC1 or VDAC3. Mitochondria isolated from vdac1 -/- , vdac3 -/- mouse fibroblasts with or without retroviral transduction of N-terminal HA-tagged VDAC2 were incubated with in vitro transcribed, translated wild-type or mutant tBID (mIII.4, G94E) protein at 30° C. for 30 min, followed by anti-HA immunoprecipitation in 1% CHAPS buffer.

B1: mutant tBID mIII.4 (G94E) (other, UniProt P70444 60-195, looked up)
chain: GSQASRSFNQGRIEPDSESQEEIIHNIARHLAQIEDEMDHNIQPTLVRQLAAQFMNGSLSEEDKRNCLAKALDEVKTAFPRDMENDKAMLIMTMLLAKKVASHAPSLLRDVFHTTVNFINQNLFSYVRNLVRNEMD
notes: domain: p15 tBID; also called m111.4 mutant; m l 11.4
  binding result: no binding
